Test results: patent publication US20070128187A1 (GENOME THERAPEUTICS, published 2007)
Values belong to the binder of their own block, whether it stands above or below them.

Assays:
[1] = biological target: T1, Zmax1/LRP5 ligand binding domain bait LBD4 (Arg1070-Pro1376) (human, UniProt O75197 1070-1376); assay: Y2H, growth on selective media
T1 construct: also called pDBleuLBD4; not shown: not described
T1 sequence: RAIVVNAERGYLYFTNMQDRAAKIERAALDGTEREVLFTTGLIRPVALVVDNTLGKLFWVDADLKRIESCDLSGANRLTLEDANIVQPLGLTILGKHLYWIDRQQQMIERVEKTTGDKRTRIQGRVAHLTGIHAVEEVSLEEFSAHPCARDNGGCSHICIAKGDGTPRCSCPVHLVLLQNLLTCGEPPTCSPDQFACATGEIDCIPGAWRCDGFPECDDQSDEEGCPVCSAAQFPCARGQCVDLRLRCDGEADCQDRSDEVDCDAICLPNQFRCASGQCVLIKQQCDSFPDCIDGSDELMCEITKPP
Excerpt: (§1) These clones were transformed into yeast and mated with each of three yeast strains containing pDBleu (Gibco/BRL), pDBleuLBD1, and pDBleuLBD4. Positive interactions were detected by growth of the hybrids on appropriate selective media.

[2] = biological target: T2, Zmax1/LRP5 ligand binding domain bait LBD1 (Leu969-Pro1376) (human, UniProt O75197 969-1376); assay: Y2H, growth on selective media
T2 construct: also called pDBleuLBD1; not shown: not described
T2 sequence: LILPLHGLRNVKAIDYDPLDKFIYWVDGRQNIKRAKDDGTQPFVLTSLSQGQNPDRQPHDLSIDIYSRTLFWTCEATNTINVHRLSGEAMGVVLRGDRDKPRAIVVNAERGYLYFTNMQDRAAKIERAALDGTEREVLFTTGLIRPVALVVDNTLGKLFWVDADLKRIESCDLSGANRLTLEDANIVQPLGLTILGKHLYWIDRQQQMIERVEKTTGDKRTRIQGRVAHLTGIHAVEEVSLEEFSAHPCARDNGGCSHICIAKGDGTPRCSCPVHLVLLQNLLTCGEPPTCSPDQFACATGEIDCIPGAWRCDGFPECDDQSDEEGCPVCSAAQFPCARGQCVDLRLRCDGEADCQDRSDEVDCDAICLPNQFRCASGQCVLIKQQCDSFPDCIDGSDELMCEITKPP
Excerpt: as §1

LRP5LBD-LexA bait = biological target: T3, LRP5LBD-LexA bait (human, UniProt O75197 969-1376, limits assumed); assay: Y2H interaction trap, lacZ reporter under a single LexA operator
T3 construct: Neither the limits of the LBD nor the order of the two parts is stated; also called LRP5 LBD fused with LexA; not shown: LexA
T3 sequence: T2 sequence
Excerpt: For example, the Interaction Trap methodology can be used as follows.

B1: Dkk-1 clone D4 (F1/R2: Asn34-Cys245) (ligand, not shown: large carriers)
chain: NSVLNSNAIKNLPPPLGGAAGHPGSAVSAAPGILYPGGNKYQTIDNYQPYPCAEDEECGTDEYCASPTRGGDAGVQICLACRKRRKRCMRHAMCCPGNYCKNGICVSSDQNHFRGEIEETITESFGNDHSTLDGYSRRTTLSSKMYHTKGQEGSVCLRSSDCASGLCCARHFWSKICKPVLKEGQVCTKHRRKGSHGLEIFQRCYCGEGLSC
binding result [1]: binds | binding result [2]: binds

B2: Dkk-1 clone D11 (F3/R2: Val139-Cys245) (ligand, not shown: large carriers)
chain: VSSDQNHFRGEIEETITESFGNDHSTLDGYSRRTTLSSKMYHTKGQEGSVCLRSSDCASGLCCARHFWSKICKPVLKEGQVCTKHRRKGSHGLEIFQRCYCGEGLSC
binding result [1]: no binding | binding result [2]: no binding

B5: Dkk-1 clone isolated from the HOB03C5 osteoblast library (Gal4 activation domain fusion prey) (ligand, S. cerevisiae)
chain: ANFNQSGNIADSSLSFTFTNSSNGPNLITTQTNSQALSQPIASSNVHDNFMNNEITASKIDDGNNSKPLSPGWTDQTAYNAFGITTGMFNTTTMDDVYNYLFDDEDTPPNPKKETLNSVLNSNAIKNLPPPLGGAAGHPGSAVSAAPGILYPGGNKYQTIDNYQPYPCAEDEECGTDEYCASPTRGGDAGVQICLACRKRRKRCMRHAMCCPGNYCKNGICVSSDQNHFRGEIEETITESFGNDHSTLDGYSRRTTLSSKMYHTKGQEGSVCLRSSDCASGLCCARHFWSKICKPVLKEGQVCTKHRRKGSHGLEIFQRCYCGEGLSCRIQKDHHQASNSSRLHTCQRH
notes: also called Gal4AD-Dkk prey
fold activation of lacZ reporter over the background (LRP5LBD-LexA bait): > 20 fold

The next lines start with the values.

binding result [1]: no binding | binding result [2]: no binding
B3: Dkk-1 clone D3 (F1/R1: Asn34-Lys182) (ligand, not shown: large carriers)
chain: NSVLNSNAIKNLPPPLGGAAGHPGSAVSAAPGILYPGGNKYQTIDNYQPYPCAEDEECGTDEYCASPTRGGDAGVQICLACRKRRKRCMRHAMCCPGNYCKNGICVSSDQNHFRGEIEETITESFGNDHSTLDGYSRRTTLSSKMYHTK

binding result [1]: binds | binding result [2]: binds
B4: Dkk-1 clone D8 (F2/R2: Cys97-Cys245) (ligand, not shown: large carriers)
chain: CASPTRGGDAGVQICLACRKRRKRCMRHAMCCPGNYCKNGICVSSDQNHFRGEIEETITESFGNDHSTLDGYSRRTTLSSKMYHTKGQEGSVCLRSSDCASGLCCARHFWSKICKPVLKEGQVCTKHRRKGSHGLEIFQRCYCGEGLSC
